Laboratory results taken from patent publication US20130184211A1 (NEW YORK UNIVERSITY, published 2013).

Experiments:
[1] = target: FGFR-Klotho complex of opossum kidney OKP cells (opossum); experiment: cell-based or functional assay
[2] = target: T1, 1:1 binary complex of the ectodomains of FGFR1c and Klotho (human; murine, UniProt O35082 35-982); experiment: SPR competition dose-response: FGF23^180-251 mixed with a fixed concentration of FGFR1c-Klotho, immobilized FGF23^28-251 as competitor; averaged data of two to three experiments
T1 construct: range 35-982; also called FGFR1c-Klotho complex; binary FGFR1c-Klotho complex; not shown: C-terminal FLAG tag
T1 sequence 1: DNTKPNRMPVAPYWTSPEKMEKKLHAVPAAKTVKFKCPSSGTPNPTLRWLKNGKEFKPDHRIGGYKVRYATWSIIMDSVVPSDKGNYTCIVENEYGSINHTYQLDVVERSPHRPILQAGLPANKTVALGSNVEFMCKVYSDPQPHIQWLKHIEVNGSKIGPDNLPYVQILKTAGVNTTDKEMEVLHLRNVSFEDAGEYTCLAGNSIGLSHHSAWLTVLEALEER
T1 sequence 2: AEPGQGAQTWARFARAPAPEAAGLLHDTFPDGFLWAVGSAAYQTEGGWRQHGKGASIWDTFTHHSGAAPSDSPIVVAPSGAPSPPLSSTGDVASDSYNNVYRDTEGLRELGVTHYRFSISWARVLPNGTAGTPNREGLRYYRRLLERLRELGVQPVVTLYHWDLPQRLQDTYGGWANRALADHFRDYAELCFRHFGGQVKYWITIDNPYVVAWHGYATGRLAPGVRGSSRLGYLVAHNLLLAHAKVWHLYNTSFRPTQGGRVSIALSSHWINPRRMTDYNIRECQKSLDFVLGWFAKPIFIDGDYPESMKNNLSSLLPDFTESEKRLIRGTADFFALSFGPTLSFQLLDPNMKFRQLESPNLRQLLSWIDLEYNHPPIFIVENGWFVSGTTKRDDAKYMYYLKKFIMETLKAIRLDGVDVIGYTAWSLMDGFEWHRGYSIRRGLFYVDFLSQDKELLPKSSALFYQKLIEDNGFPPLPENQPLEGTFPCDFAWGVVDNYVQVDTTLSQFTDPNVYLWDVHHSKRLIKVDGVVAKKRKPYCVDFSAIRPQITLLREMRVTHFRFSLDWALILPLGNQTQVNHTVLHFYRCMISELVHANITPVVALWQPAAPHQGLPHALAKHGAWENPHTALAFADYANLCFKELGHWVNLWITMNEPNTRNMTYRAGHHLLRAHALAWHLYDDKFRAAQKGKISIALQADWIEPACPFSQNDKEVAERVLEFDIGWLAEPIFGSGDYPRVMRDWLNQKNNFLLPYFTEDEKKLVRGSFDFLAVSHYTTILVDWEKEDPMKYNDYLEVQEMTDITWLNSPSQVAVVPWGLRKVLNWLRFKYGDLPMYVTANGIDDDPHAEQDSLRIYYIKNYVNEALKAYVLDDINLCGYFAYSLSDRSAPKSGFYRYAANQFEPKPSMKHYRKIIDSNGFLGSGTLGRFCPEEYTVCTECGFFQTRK
Description: Increasing concentrations of FGF23²⁸⁻²⁵¹ (0-50 nM) were mixed with a fixed concentration of 1:1 complex of the ectodomains of FGFR1c and Klotho (15 nM and 20 nM, respectively) in HBS-EP buffer, and the mixtures were passed over the FGF23 chip. In the other—reverse—assay, FGF23¹⁸⁰⁻²⁵¹ was immobilized on a chip (˜48.4 fmole/mm² of flow channel). Increasing concentrations of FGF23²⁸⁻²⁵¹ (0-50 nM) were mixed with a fixed concentration of 1:1 complex of the ectodomains of FGFR1c and Klotho (20 nM) in HBS-EP buffer, and the mixtures were passed over the chip. As a control, competition of FGF23 C-terminal tail peptide in solution with immobilized FGF23 C-terminal tail peptide for binding to the binary FGFR1c-Klotho complex was studied. Increasing concentrations of FGF23¹⁸⁰⁻²⁵¹ (0-400 nM) were mixed with a fixed concentration of 1:1 complex of the ectodomains of FGFR1c and Klotho (20 nM) in HBS-EP buffer, and the mixtures were passed over the FGF23¹⁸⁰⁻²⁵¹ chip.
To fully nail down that the C-terminal tail of FGF23 mediates FGF23 binding to the binary FGFR1c-Klotho complex, a fixed concentration of FGFR1c-Klotho was mixed with increasing concentrations of FGF23¹⁸⁰⁻²⁵¹, and the mixtures were passed over the FGF23 chip. Mixtures of FGF23²⁸⁻²⁵¹ with FGFR1c-Klotho were used as a control. […]

[3] = target: T2, complex of V5-tagged FGFR4 and FLAG-tagged membrane-spanning murine Klotho isolated from transfected … (murine, UniProt O35082 35-1014); experiment: co-immunoprecipitation competition; competitor FGF23^28-251 (1 nM)
T2 construct: Isolated from cell lysate on anti-V5 agarose beads; also called FGFR4-Klotho complex; binary FGFR-Klotho complex; not shown: FGFR4, V5-tagged, expressed from a vector in HEK293-Klotho cells
Text: (§1) Co-immunoprecipitation may also be used to determine that an agent specifically binds the binary FGFR-Klotho complex. One aspect of the present invention utilizes co-immunoprecipitation studies. Subconfluent cultures of a HEK293 cell line ectopically expressing the FLAG-tagged membrane-spanning form of murine Klotho were transfected with expression vectors for V5-tagged FGFR1c, FGFR3c, or FGFR4. Two days later, the cells were lysed, and FGFR-Klotho complexes were isolated from cell lysate using anti-V5 agarose beads. The beads were then incubated with either FGF23¹⁸⁰⁻²⁵¹ or FGF23²⁸⁻²⁵¹ alone, or with mixtures of FGF23²⁸⁻²⁵¹ with either increasing FGF23¹⁸⁰⁻²⁵¹ or increasing FGF23¹⁸⁰⁻²⁰⁵. Bead-bound proteins were resolved on SDS-polyacrylamide gels, transferred to nitrocellulose membranes, and labeled using antibodies to Klotho, FGF23, and V5 epitope tag.

[4] = target: T3, complex of V5-tagged FGFR3c and FLAG-tagged membrane-spanning murine Klotho isolated from transfected … (murine, UniProt O35082 35-1014); experiment: as above
T3 construct: Isolated from cell lysate on anti-V5 agarose beads; also called FGFR3c-Klotho complex; binary FGFR-Klotho complex; not shown: FGFR3c, V5-tagged, expressed from a vector in HEK293-Klotho cells
Text: as §1

T3 sequence (O35082 35-1014, one chain of several): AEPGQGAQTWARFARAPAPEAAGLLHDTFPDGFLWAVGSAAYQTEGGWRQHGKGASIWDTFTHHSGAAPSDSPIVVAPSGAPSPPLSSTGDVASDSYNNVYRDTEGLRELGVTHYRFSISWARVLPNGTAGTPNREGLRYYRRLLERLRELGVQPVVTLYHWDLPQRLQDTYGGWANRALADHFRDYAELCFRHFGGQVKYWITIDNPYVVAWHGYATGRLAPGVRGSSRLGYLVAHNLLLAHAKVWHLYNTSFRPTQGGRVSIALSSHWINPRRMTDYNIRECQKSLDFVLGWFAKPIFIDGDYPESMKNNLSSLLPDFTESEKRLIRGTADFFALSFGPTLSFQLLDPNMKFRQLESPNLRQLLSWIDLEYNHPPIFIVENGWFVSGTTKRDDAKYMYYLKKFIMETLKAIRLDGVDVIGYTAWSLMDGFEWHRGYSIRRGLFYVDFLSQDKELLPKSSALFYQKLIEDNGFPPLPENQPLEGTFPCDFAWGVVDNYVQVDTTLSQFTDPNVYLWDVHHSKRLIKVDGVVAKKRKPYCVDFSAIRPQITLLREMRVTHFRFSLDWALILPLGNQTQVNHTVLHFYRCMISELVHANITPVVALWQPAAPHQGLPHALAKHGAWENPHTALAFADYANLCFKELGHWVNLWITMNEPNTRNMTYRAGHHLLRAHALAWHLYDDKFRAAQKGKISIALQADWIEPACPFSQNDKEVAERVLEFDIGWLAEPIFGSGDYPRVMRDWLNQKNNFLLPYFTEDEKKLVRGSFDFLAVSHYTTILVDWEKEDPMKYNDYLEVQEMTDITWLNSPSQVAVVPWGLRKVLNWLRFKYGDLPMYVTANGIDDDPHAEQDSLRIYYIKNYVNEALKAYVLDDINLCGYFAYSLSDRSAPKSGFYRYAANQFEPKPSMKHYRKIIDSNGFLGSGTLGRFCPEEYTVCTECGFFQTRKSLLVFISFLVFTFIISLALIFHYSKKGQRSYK

antagonism of the inhibition of sodium-coupled phosphate uptake by FGF23^28-251 in OKP cells, IC50 [1]: ~0.021 µM | IC50 (read off the curve) [2]: ~0.05 µM | molar excess over FGF23^28-251 that completely blocked its binding [3]: 76 fold molar excess | molar excess over FGF23^28-251 that completely blocked its binding [4]: 76 fold molar excess
B1: N-terminally hexahistidine-tagged 72-amino acid C-terminal tail of human FGF23 (S180 to I251), FGF23^180-251 (peptide)
peptide: SAEDDSERDPLNVLKPRARMTPAPASCSQELPSAEDNSPMASDPLGVVRGGRVNTHAGGTGPEGCRPFAKFI
notes: Expressed in E. coli; also called FGF23 C-terminal tail peptide; C-terminal tail of FGF23; not shown: N-terminal hexahistidine tag (six His)
